The values that follow come from publication PMC10743851.

The target in the test is actin (of the actin-chitin affinity column). Put plainly: sequential dual-affinity chromatography; DBP of donor eluted from the 25-OH-D3/Sepharose column, loaded on the Actin/chitin column.

A value given as a limit tells only on which side of the number the result lay.

Consider “vitamin D3-binding protein (DBP) of donor (from UniProt P02774 17-474) (natural protein)”, for which the percent bound is less than 10%.
